Changes are numbered by the printed parent chain. Like-named read-outs stand apart in the source and are kept apart here. Bridge positions count the residues as written; N and C are the ends. Ends that are not written are not given here.
B1: ^25, 28Pro-h-Amylin (peptide)
peptide: KCNTATCATQRLANFLVHSSNNFGPILPSTNVGSNTY
B2: ^25Pro^26Val^28, 29Pro-h-Amylin (peptide)
peptide: B1 peptide with I26V, S29P
B3: ^18Arg^25, 28, 29Pro-h-Amylin (peptide)
peptide: B1 peptide with H18R, S29P
B4: ^25, 28, 29Pro-h-Amylin (peptide)
peptide: B1 peptide with S29P
modifications: disulfide 2-7; not fully specified (C-terminus)
B5: ^2, 7Cyclo-[^2Asp,^7Lys]-h-Amylin (peptide)
peptide: B1 peptide with C2D, C7K, P25A, P28S
modifications: lactam 2-7; not fully specified (C-terminus)
B6: ^18Arg^25, 28Pro-h-Amylin (peptide)
peptide: B1 peptide with H18R
B7: des-^1Lys^25, 28Pro-h-Amylin (peptide)
peptide: CNTATCATQRLANFLVHSSNNFGPILPSTNVGSNTY
B8: des-^1Lys^25, 28, 29Pro-h-Amylin (peptide)
peptide: B7 peptide with S28P
B9: des-^1Lys^18Arg^25, 28Pro-h-Amylin (peptide)
peptide: B7 peptide with H17R
B10: des-^1Lys^18Arg^25, 28, 29Pro-h-Amylin (peptide)
peptide: B7 peptide with H17R, S28P

How the values were obtained:
[1] = molecular target: amylin receptors (membrane-bound, rat basal forebrain membranes containing the nucleus accumbens and surrounding regions) (rat); test: competition with 125I Bolton-Hunter rat amylin on rat basal forebrain membranes
[2] = molecular target: amylin receptors (membrane-bound, rat basal forebrain membranes containing the nucleus accumbens and surrounding regions) (rat); test: as above; remark: listed apart in the source

| Molecule | IC50 [1] | IC50 [2] |
| --- | --- | --- |
| human amylin (hAmylin) (ligand) | 50000 nM |  |
| B1 |  | 0.026 nM |
| B2 |  | 0.018 nM |
| B3 |  | 0.021 nM |
| B4 |  | 0.01 nM |
| B5 |  | 0.31 nM |
| B6 |  | 0.032 nM |
| B7 |  | 0.085 nM |
| B8 |  | 0.014 nM |
| B9 |  | 0.082 nM |
| B10 |  | 0.021 nM |
